These are literature values, as cited in paper PMC5257200.

The target of the data set is His19 (UniProt position 19, ILSALHFMAWT). To be noted: Membrane-bound peptide.

Turning to “Influenza B virus M2 protein peptide BM2(3–33) (Influenza B virus (strain not stated for this construct))”, the pKa is about 6.5.

A word on the pKa: it is the pH at which an ionisable group is half protonated.
